The values below come from patent US20230183352A1 (published 2023).

B1: QP14631461 (antibody, human IgG1, kappa, V domains shown)
VH: QVQLVQSGAEVKKPGASVKVSCKASGYTFTSYIMHWVRQAPGQGLEWMGYINPYNDGTKYNEKFKGRVTMTRDTSTSTVYMELSSLRSEDTAVYYCARLGFTTRNAMDYWGQGTLVTVSS
VL: DIVMTQSPDSLAVSLGERATINCKSSQSLLNSGNQKNYLAWYQQKPGQPPKLLIYGASTRESGVPDRFTGSGSGTDFTLTISSLQAEDVAVYYCQNDHSYPFTFGQGTKLEIKR
notes: also called QP14611463
B2: QP207208 (antibody, human IgG1, V domains shown)
VH: EVQLQQSGPELVKPGASVKMSCKASGYTFTSYIMHWVKQKPGQGLEWIGYINPYNDGTKYNEKFKGKATLTSDKSSSTVYMELSSLTSEDSAVYCCARLGFTTRNAMDYWGQGTSVTVSS
VL: DIVMTQSPSSLSVSAGEKVTMNCKSSQSLLNSGNQKNYLAWYQQKPGQPPKLLIYGASTRESGVPDRFTGSGSGTDFTLTISSVQAEDLAVYYCQNDHSYPFTFGSGTKLEIK
notes: Chimeric; also called 51A3; mouse-derived chimeric antibody QP207208
B3: QP14641461 (antibody, human IgG1, kappa, V domains shown)
VH: B1 VH with Q1E, M48I, M70L, T74K
VL: B1 VL
notes: Humanized from QP207208
B4: QP14641462 (antibody, human IgG1, kappa, V domains shown)
VH: B1 VH with Q1E, M48I, M70L, T74K
VL: B1 VL with L84V
notes: Humanized from QP207208
B5: QP14641460 (antibody, human IgG1, kappa, V domains shown)
VH: B1 VH with Q1E, M48I, M70L, T74K
VL: B1 VL with T69S
notes: Humanized from QP207208
B6: QP14651460 (antibody, human IgG1, kappa, V domains shown)
VH: B1 VH with Q1E, M48I, M70L, R72S, T74K
VL: B1 VL with T69S
notes: Humanized from QP207208
B7: QP325 (Fc fusion)
chain: EVQLLESGGGLVQPGGSLRLSCAASGFTYGTYAMSWFRQAPGKGLEGVACIDIYGRTSYTDPVKGRFTISQDNSKNTLYLQMNSLRAEDTAVYYCAARDFGYCTASWVHEGFSRYWGQGTLVTVSS
notes: Humanization design of QP1166; VHH-Fc; also called 1166-V3; QD325; not shown: human IgG1-FC constant region fused to the C terminal of the VHH
B8: QP1166 (Fc fusion)
chain: QVQLVESGGDSVQPGGSLRLSCAASGFTYGTYAMSWFRQAPGKEREGVACIDIYGRTSYTDPVKGRFTISQDNAKNTLYLQMNSLKPEDTAMYYCAARDFGYCTASWVHEGFSRYWGQGTQVTVSS
notes: Chimeric antibody before humanization; also called QD1166; nanobody QP1166; not shown: Fc part: called chimeric antibody, cloned in vector VH-FC-pQD
B9: QP1162 (Fc fusion)
chain: B8 chain with D10G, P14S, T57A
notes: Chimeric antibody before humanization; also called QD1162; nanobody QP1162; not shown: Fc part: called chimeric antibody, cloned in vector VH-FC-pQD

Positions count from the first letter of the chain named.

T2 sequence (Q9NZQ7 19-239 limits assumed): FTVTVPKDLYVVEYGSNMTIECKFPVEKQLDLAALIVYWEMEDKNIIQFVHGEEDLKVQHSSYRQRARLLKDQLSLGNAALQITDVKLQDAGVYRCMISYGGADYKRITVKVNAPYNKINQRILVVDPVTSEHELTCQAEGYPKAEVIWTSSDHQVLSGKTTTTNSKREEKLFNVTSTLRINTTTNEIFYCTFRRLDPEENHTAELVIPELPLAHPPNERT

In the first assay the target is T1, Claudin 18.2 (CLDN18.2), expressed on CHOS-CLDN 18.2 / HEK293-CLDN 18.2 / HCC827-CLDN 18.2 cells (human, UniProt P56856-2 1-261). In words: cell-based or functional assay.
In the case of B1, the “EC50 of killing, ADCC (PBMC, HEK293-CLDN18.2 cells)” value stood at 0.0115 mg/L; the “Killing percentage, ADCC (PBMC, HEK293-CLDN18.2 cells), 0 µg/ml” value came out at 4.88%; the “Killing percentage, ADCC (PBMC, HEK293-CLDN18.2 cells), 0.0001024 µg/ml” value worked out at 4.3%; the “Killing percentage, ADCC (PBMC, HEK293-CLDN18.2 cells), 0.000512 µg/ml” value is 5.65%. In addition, the “Killing percentage, ADCC (PBMC, HEK293-CLDN18.2 cells), 0.00256 µg/ml” value was 10.2%; the “Killing percentage, ADCC (PBMC, HEK293-CLDN18.2 cells), 0.0128 µg/ml” value was determined as 23.4%; the “Killing percentage, ADCC (PBMC, HEK293-CLDN18.2 cells), 0.064 µg/ml” value came out at 39.3%; the “Killing percentage, ADCC (PBMC, HEK293-CLDN18.2 cells), 0.32 µg/ml” value stood at 43.8%. Besides, the “Killing percentage, ADCC (PBMC, HEK293-CLDN18.2 cells), 1.6 µg/ml” value came to 43.4%; the “Killing percentage, ADCC (PBMC, HEK293-CLDN18.2 cells), 8 µg/ml” value worked out at 46.3%; the “Killing percentage, ADCC (PBMC, HEK293-CLDN18.2 cells), 40 µg/ml” value stood at 28.6%.

Another assay addresses T1, Claudin 18.2 (CLDN18.2), expressed on …. In words: FACS, CHOS-CLDN18.2 cells. (Flow cytometry measures light scatter and fluorescence of single cells or particles in a stream.)
For the molecule B2, the EC50 was found to be 0.267 mg/L and the max worked out at 187000.
Taken in the same sequence, the figures for B3 were 0.165 mg/L and 166000.
The molecule B4 came in with a half-maximal effective concentration (EC50) of 0.306 mg/L and a max of 224000.
Taken in the same sequence, the figures for B5 were 0.0936 mg/L and 191000.
Taken in the same sequence, the figures for B1 were 0.156 mg/L and 227000.
Taken in the same sequence, the figures for B6 were 0.186 mg/L and 189000.

The next assay shares this target. Nature of the assay: FACS, CHOS-CLDN18.2 cells, 5 µg/ml.
Consider B2, for which the FACS reading was 187000.
On the same count and under the same terms, next, B3: 166000.
On the same count and under the same terms, next, B4: 224000; B5: 191000.
For the molecule B1, the FACS reading was determined as 227000.
Still for that read-out and setting: next, B6: 189000.

For the next assay the target is unchanged. Nature of the assay: FACS, CHOS-CLDN18.2 cells, 20 µg/ml.
The molecule B2 yielded an FACS reading of 117000.
Same read-out and setting: next, B3: 99500; B4: 117000; B5: 114000.
For the molecule B1, the FACS reading worked out at 131000.
On the same count and under the same terms, next, B6: 174000.

The target is the same in the next assay. In words: FACS, CHOS-CLDN18.2 cells, 10 µg/ml.
For the molecule B2, the MFI was determined as 627000.
On the same count and under the same terms, next, B3: 721000; B4: 758000.
Still for that read-out and setting: next, B5: 604000; B1: 657000; B6: 595000.

The target is the same in the next assay. In words: FACS, CHOS-CLDN18.2 cells, 0.005 µg/ml.
B2 had an FACS reading of 5090.
Still for that read-out and setting: next, B3: 5980; B4: 8450; B5: 6600.
Still for that read-out and setting: next, B1: 7790; B6: 7190.

A further assay shares this target. Nature of the assay: FACS, CHOS-CLDN18.2 cells, 0.020 µg/ml.
Take B2: the FACS reading amounted to 11500.
Still for that read-out and setting: next, B3: 19900; B4: 15800; B5: 16200.
B1 gave an FACS reading of 19300.
On the same count and under the same terms, next, B6: 19600.

Another assay has the same target. In words: FACS, CHOS-CLDN18.2 cells, 0.078 µg/ml.
Consider B2, for which the FACS reading is 24700.
On the same count and under the same terms, next, B3: 46300.
The same measure, in the same setting: next, B4: 29300.
Same read-out and setting: next, B5: 44300.
On to B1, for which the FACS reading is 51400.
The molecule B6 had an FACS reading of 50300.

The next assay has the same target. Nature of the assay: FACS, CHOS-CLDN18.2 cells, 0.313 µg/ml.
In turn, B2 showed an FACS reading of 90200.
Same read-out and setting: next, B3: 97500.
Still for that read-out and setting: next, B4: 93600; B5: 151000.
Same read-out and setting: next, B1: 144000; B6: 134000.

The target is the same in the next assay. In words: FACS, CHOS-CLDN18.2 cells, 1.250 µg/ml.
As for B2, the FACS reading was 149000.
On the same count and under the same terms, next, B3: 160000; B4: 170000.
Still for that read-out and setting: next, B5: 146000; B1: 201000.
Consider B6, for which the FACS reading was 219000.

The next assay has the same target. In words: FACS, CHOS-CLDN18.2 cells, 0 µg/ml (background).
Take B2: the FACS reading was determined as 732.
Still for that read-out and setting: next, B3: 732.
Same read-out and setting: next, B4: 732; B5: 732; B1: 732.
The same measure, in the same setting: next, B6: 732.

A further assay shares this target. Nature of the assay: FACS, MFI on CHOS-CLDN18.2 over MFI on CHOS-CLDN18.1, 10 µg/ml.
With B2, the “CLDN18.2/CLDN18.1 (MFI ratio)” value is 476.
On the same count and under the same terms, next, B3: 709; B4: 718.
On the same count and under the same terms, next, B5: 579; B1: 700.
Still for that read-out and setting: next, B6: 596.

Another assay concerns the target T2, PD-L1 Protein, Human, Recombinant (His Tag) (human, UniProt Q9NZQ7 19-239).
T2 construct: Bought protein; also called QPP09.1; SinoBiologic 10084-H08H
In words: SPR Biacore T200, antibody captured, PD-L1 His as analyte, 1:1 binding.
In the case of B7, the Kd turned out to be 10.7 nM, the koff stood at 0.004 s⁻¹ and the kon is 375000 M⁻¹ s⁻¹.
Taken in the same sequence, the figures for B8 were 2.63 nM, 0.00255 s⁻¹ and 968000 M⁻¹ s⁻¹.
Taken in the same sequence, the figures for B9 were 2.77 nM, 0.00379 s⁻¹ and 1.37e+06 M⁻¹ s⁻¹.

The target of the next assay is T3, PD-L1 Protein, Cynomolgus, Recombinant (His Tag) (cynomolgus).
T3 construct: Bought protein; also called QPP10.1; SinoBiologic 90251-C08H
The assay is described as above.
Turning to B7, the Kd is 19.6 nM, the koff was found to be 0.00416 s⁻¹ and the kon was determined as 212000 M⁻¹ s⁻¹.
Taken in the same sequence, the figures for B8 were 5.6 nM, 0.00266 s⁻¹ and 475000 M⁻¹ s⁻¹.
Taken in the same sequence, the figures for B9 were 5.6 nM, 0.00401 s⁻¹ and 715000 M⁻¹ s⁻¹.

For orientation: EC50 means the concentration giving half of the maximal effect. The term Kd denotes the equilibrium constant for the complex coming apart. By koff is commonly meant the first-order rate constant of dissociation. For orientation: kon means the rate constant with which the complex forms.
